Experiment [1] has as its target T1, Pig Semaphorin3A-Sema Domain, TPP-20176 (pig, UniProt Q63548 21-569 (rat entry)).
T1 construct: produced inhouse
T1 chain: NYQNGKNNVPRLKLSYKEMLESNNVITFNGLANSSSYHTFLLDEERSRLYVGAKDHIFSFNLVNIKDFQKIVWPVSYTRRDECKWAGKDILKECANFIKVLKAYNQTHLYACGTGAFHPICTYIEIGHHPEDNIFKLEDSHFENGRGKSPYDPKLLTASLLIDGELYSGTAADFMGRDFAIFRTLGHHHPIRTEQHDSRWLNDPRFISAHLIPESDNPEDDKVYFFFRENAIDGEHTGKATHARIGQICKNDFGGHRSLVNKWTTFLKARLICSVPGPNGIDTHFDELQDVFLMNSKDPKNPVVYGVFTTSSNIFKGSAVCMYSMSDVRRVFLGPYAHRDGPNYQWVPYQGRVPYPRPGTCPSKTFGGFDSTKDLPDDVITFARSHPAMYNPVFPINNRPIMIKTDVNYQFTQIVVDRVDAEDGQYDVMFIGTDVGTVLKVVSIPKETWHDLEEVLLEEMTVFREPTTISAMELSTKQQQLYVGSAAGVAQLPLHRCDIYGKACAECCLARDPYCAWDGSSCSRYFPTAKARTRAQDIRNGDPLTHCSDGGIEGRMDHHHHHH
Put plainly: SPR, captured antibody, Sema3A domain analyte. How it is done: (§1) To assess the binding activity of anti-Sema3A antibodies binding assays were conducted using surface plasmon resonance (SPR). Binding assays were performed on a Biacore T200 instrument (Cytiva) at 25° C. using assay buffer HBS P+, 300 mM NaCl, 0.75 mM CaCl₂, 2.5 mM MgCl₂, 1 mg/ml BSA, 0.05% NaN₃. Antibodies were captured via anti-human Fc IgGs (“Human antibody capture kit”, Order No. BR100839, Cytiva) covalently amine coupled to a Series S CM5 sensor chip (Cytiva). The amine coupling was carried out according to the manufacturer's instructions using 1-ethyl-3-(3-dimethylaminopropyl) carbodiimide hydrochloride (EDC), N-hydroxysuccinimide (NHS) and ethanolamine HCl, pH 8.5 (“Amine Coupling Kit” BR-1000-50, Cytiva.). Human, mouse, cynomolgus, rat, dog and pig monovalent Sema3A domain were used as analytes in a concentration series from 0.024-3.125 nM in multi cycle kinetics mode. The sensor surface was regenerated with glycine pH 2.0 after each antigen injection. Obtained sensorgrams were double referenced (subtraction of reference flow cell signal and buffer injection) and were fitted to a 1:1 Langmuir binding model using the Biacore T200 Evaluation software obtaining the experimental fitted RMax value. To calculate the binding activity first the theoretical RMax needs to be calculated according to equation 1: […]
(§2) Binding activity was determined by dividing the experimental determined RMax by the theoretical calculated RMax according to equation 2: […]
A general note: Surface plasmon resonance follows binding to a sensor surface in real time, without labels.

Experiment [2] addresses T2, Cyno Semaphorin3A-Sema Domain, TPP-19122 (cynomolgus (Macaca fascicularis), UniProt Q63548 21-569 (rat entry), limits assumed).
T2 construct: produced inhouse
T2 chain: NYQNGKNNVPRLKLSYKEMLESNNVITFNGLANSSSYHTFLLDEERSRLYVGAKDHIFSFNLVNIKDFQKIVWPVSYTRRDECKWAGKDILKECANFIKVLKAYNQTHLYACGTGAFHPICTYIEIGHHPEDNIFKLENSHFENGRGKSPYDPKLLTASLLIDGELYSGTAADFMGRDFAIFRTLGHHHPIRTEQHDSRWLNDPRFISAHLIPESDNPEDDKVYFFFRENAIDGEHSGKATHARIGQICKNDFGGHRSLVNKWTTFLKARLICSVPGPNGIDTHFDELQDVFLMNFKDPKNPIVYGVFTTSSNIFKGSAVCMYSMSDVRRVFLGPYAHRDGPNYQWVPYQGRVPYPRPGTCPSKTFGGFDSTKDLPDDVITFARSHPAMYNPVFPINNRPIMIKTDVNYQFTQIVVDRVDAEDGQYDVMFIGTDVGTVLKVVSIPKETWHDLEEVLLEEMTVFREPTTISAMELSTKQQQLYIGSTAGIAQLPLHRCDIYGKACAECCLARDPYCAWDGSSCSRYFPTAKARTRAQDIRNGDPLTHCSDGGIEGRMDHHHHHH
Kind of experiment: SPR, captured antibody, Sema3A domain analyte. How it is done:
as §1, §2

Experiment [3] addresses Human Semaphorin3A-Fc (R&D Systems), TPP-13211 (human). Kind of experiment: cell-based or functional assay.
Experiment [4] concerns the target T3, Human Semaphorin3A-Fc (R&D Systems), TPP-13211 (human).
T3 construct: R&D Systems 1250-S3; also called recombinant human Sema3A-Fc chimera
Kind of experiment: competition ELISA on coated TPP-13211, competitor biotinylated TPP-15370. How it is done:
For screening in a competition ELISA setup, human Sema3a (TPP-13211) was coated onto 384-well plates (Greiner bio-one, 781077) with a concentration of 0.5 μg/ml in coating buffer (Carbonate-Basis pH 9.6, Candor 121125) over night at 10° C. After washing the plates 3 times with 50 μl PBS 0.05% Tween the plates were blocked with 50 μl Smart Block® (Candor 113500) for 1 h at 20° C. and washed again 3 times as described.
Subsequently, 20 μl of pre-mixed antibody solution was added to the plates and incubate for 18 h at 10° C. […] The total concentration of the added antibody solution was 0.25 μg/ml. During the incubation time the antibodies bound to the plates in a competitive manner as they compete for the same epitope on the human Sema3A protein.
After subsequent washing with 50 μl PBS 0.05% Tween for 3 times, 20 μl of a Streptavidin-HRP solution (R&D Systems, DY998, 1:200 in PBS 0.05% Tween 10% Smart Block) were added and incubated for 1 h and 20° C. followed by subsequent washing 3 times with 50 μl PBS 0.05% Tween and addition of 20 μl Amplex Red solution (Invitrogen A12222, 1:1000 in NaP-buffer 50 mM pH7.6 with 1:10000 of 30% H2O2). After a final incubation for 20 min at 20° C. the signal was determined using an emission wavelength of 595 nm and excitation of 530 nm.
(In an ELISA, binding on a coated surface is turned into a signal by an enzyme label.)

T3 sequence (chain, as listed by the source limits assumed): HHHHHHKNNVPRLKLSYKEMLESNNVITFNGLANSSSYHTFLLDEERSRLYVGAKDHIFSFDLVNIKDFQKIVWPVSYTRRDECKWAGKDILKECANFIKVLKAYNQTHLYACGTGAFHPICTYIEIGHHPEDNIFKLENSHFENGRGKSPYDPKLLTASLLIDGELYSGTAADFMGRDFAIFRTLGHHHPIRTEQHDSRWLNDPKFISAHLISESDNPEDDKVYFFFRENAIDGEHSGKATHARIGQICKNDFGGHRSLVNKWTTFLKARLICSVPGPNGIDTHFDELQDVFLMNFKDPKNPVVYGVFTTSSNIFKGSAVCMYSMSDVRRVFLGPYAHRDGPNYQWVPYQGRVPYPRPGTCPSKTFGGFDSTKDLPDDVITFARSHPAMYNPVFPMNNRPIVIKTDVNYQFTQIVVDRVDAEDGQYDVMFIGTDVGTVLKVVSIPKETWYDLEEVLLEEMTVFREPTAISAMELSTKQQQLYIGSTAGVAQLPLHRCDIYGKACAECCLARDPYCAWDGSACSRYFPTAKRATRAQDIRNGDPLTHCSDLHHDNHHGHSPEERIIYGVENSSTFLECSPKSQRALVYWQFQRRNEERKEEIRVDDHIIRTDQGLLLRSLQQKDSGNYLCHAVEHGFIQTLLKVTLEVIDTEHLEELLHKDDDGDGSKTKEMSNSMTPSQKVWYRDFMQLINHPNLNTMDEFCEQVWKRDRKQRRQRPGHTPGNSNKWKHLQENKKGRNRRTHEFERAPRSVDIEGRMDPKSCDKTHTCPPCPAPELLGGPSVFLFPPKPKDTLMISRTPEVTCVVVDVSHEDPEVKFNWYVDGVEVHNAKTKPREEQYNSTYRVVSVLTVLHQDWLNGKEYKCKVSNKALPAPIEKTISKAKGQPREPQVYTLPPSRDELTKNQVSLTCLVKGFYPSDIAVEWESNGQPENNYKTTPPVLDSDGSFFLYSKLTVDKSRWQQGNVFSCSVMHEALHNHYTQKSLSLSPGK

B1: TPP-15374 (antibody, human IgG1, lambda, V domains shown)
VH: EVQLLESGGGLVQPGGSLRLSCAASGFTFSSYEMNWVRQAPGKGLEWVSGISWNSGSIGYADSVKGRFTISRDNSKNTLYLQMNSLRAEDTAVYYCARSGYSSSWFDPDFDYWGQGTLVTVSS
VL: QSVLTQPPSASGTPGQRVTISCTGSSSNIGAGYDVHWYQQLPGTAPKLLIYGNSNRPSGVPDRFSGSKSGTSASLAISGLRSEDEADYYCSSYAGSNPYVVFGGGTKLTVLG
notes: human IgG1; also called IgG1, hit from panning; parental mAb
With B1, the “Binding Activity [%]” value is 103% in experiment [1] and 104% in experiment [2]. For the same molecule, the “EC50 [nM], MCM assay” value in experiment [3] was 5.07 nM.

B2: TPP-23298 (antibody, human IgG4 S228P, lambda, V domains shown)
VH: EVQLLESGGGLVQPGGSLRLSCAASGFTFYSYAMSWVRQAPGKGLEWVSAIGTGGDTYYADSVKGRFTISRDNSKNTLYLQMNSLRAEDTAVYYCARRDDYTSRDAFDYWGQGTLVTVSS
VL: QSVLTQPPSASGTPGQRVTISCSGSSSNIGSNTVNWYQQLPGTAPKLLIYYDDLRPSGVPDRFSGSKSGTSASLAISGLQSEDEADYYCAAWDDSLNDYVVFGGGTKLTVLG
Consider B2, for which the “Binding Activity [%]” value in experiment [1] was found to be 107%. For the same molecule, the “Binding Activity [%]” value in experiment [2] was 106%. Further, in experiment [4], the “VAL norm to TPP-9809 (1 to 1 ratio)” value is 0.18 and the “VAL norm to TPP-9809 (1 to 5 ratio)” value was found to be 0.09. In experiment [3], the “EC50 [nM], MCM assay” value came out at 0.4 nM.

B3: TPP-15370 (antibody, human IgG1, lambda, V domains shown)
VH: EVQLLESGGGLVQPGGSLRLSCAASGFTFSSYGMHWVRQAPGKGLEWVSAIGTGGDTYYADSVMGRFTISRDNSKNTLYLQMNSLRAEDTAVYYCARRDDYTSRDAFDVWGQGTLVTVSS
VL: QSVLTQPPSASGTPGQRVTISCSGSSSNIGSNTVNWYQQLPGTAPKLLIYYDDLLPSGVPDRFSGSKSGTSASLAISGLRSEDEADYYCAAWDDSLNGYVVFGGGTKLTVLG
notes: as for B1
As to B3, the “Binding Activity [%]” value in experiment [1] was 111%. In addition, in experiment [2], the “Binding Activity [%]” value was 139%. In experiment [4], the “VAL norm to TPP-9809 (1 to 1 ratio)” value was found to be 0.67 and the “VAL norm to TPP-9809 (1 to 5 ratio)” value is 0.54. In addition, in experiment [3], the “EC50 [nM], MCM assay” value is 4.13 nM.
